Experiments:
CD19 = target: T1, CD19 (human, UniProt P15391 20-556); assay: cell-based or functional assay; design: unit not given beside the values
T1 sequence (looked up): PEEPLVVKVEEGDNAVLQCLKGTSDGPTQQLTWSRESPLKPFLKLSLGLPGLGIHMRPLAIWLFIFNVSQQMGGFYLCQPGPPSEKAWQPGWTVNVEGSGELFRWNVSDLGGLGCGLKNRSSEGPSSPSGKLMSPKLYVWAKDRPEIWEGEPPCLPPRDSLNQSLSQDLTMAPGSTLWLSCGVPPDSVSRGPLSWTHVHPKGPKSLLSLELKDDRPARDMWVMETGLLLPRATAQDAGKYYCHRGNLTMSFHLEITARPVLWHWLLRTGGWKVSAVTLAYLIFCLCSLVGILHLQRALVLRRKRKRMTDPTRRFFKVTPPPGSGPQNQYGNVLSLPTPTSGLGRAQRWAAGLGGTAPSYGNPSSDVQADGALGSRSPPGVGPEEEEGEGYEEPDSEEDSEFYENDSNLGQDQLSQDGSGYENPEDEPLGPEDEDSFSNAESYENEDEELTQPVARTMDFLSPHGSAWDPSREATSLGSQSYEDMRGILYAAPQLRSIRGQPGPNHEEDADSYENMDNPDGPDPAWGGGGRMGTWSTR

CD22 = CD22 (human, UniProt P20273 20-847); assay: cell-based or functional assay; design: unit not given beside the values

B1: ADCx19 (antibody, V domains shown)
VH: QVQLVQPGAEVVKPGASVKLSCKTSGYTFTSNWMHWVKQAPGQGLEWIGEIDPSDSYTNYNQNFQGKAKLTVDKSTSTAYMEVSSLRSDDTAVYYCARGSNPYYYAMDYWGQGTSVTVS
VL: EIVLTQSPAIMSASPGERVTMTCSASSGVNYMHWYQQKPGTSPRRWIYDTSKLASGVPARFSGSGSGTSYSLTISSMEPEDAATYYCHQRGSYTFGGGTKLEIK
modifications: pyrrolobenzodiazepine (PBD) dimer warhead attached to the antibody via a cleavable linker; DAR 2+/-0.3; attachment residues not stated
- EC50, in vitro cytotoxicity (MTS cell viability) on Ramos cells, 4 days (CD19): 0.000239

B2: ADCx22 (antibody, human IgG1, kappa, V domains shown)
VH: QVQLVQSGAEVKKPGSSVKVSCKASGYTFTSYWLHWVRQAPGQGLEWIGYINPRNDYTEYNQNFKDKATITADESTNTAYMELSSLRSEDTAFYFCARRDITTFYWGQGTLVTVSS
VL: DIQLTQSPSSLSASVGDRVTMSCKSSQSVLYSANHKNYLAWYQQKPGKAPKLLIYWASTRESGVPSRFSGSGSGTDFTFTISSLQPEDIATYYCHQYLSSWTFGQGTKVEIKR
modifications: PBD drug-linker on heavy chain interchain cysteine Cys220 (EU numbering) = position 219 of SEQ ID NO. 15
- EC50, in vitro cytotoxicity (MTS cell viability) on Ramos cells, 4 days (CD22): 0.0133
